The values below come from patent US20130177572A1 (X BODY, published 2013).

A value given as a limit tells only on which side of the number the result lay.

Assay [1] has as its target T1, human PDGFR-hIgG1-Fc chimeric fusion protein (human, UniProt P09619 33-530).
T1 construct: For the IgG assay it was captured by an anti-6His antibody, which points to a His tag; also called recombinant human PDGFR-hIgG1-Fc chimeric fusion protein (R&D, #385-PR-100/CF); human PDGFRβ; not shown: human IgG1 Fc
Description: SPR (Biacore T100), PDGFR-Fc captured by anti-6His antibody, 1:1 model. The procedure:
(§1) IgG1 to human PDFGR were determined using surface plasmon resonance on a Biacore T100. Briefly, recombinant human PDGFR-hIgG1-Fc chimeric fusion protein (R&D, #385-PR-100/CF) was immobilized on a Series CM5 sensorchip coupled with anti-hIgG1 Fc monoclonal antibody (for the VH and ScFv assays) or anti-6His antibody (for the IgG assay). […] The data was analyzed using the Biacore T100 analysis software using a 1:1 model. Mass transport was checked and avoided to allow accurate measurements. All data was double referenced according to Biacore standard protocol.
A general note: In SPR one partner is held on a chip, and binding of the other changes the refractive index at the surface.

The target of assay [2] is T1, human PDGFR-hIgG1-Fc chimeric fusion …. Kind of assay: SPR competition (Biacore T100): captured PDGFR-Fc, VH 0.46-60 nM, then 10 nM PDGFBB. On the procedure:
Briefly, human PDGFR-hIgG1-Fc chimeric fusion protein was immobilized using a Series CM5 sensorchip coupled with anti-hIgG1 Fc monoclonal antibody. […] For each successive cycle, the PDGFR fusion protein was first captured then VH domain was then injected for 120 seconds. […] The surface was regenerated at each cycle with a single injection of 3M MgCl2 (10 uL/min, 60 seconds).

Assay [3] has the same target. Kind of assay: SPR (Biacore T100), human PDGFR-hIgG1-Fc captured by anti-hIgG1 Fc, 1:1 fit. The procedure:
(§2) The R4 framework shuffled human and mouse PDGFRβ enriched VH domain pool selected in Example 2 was cloned into E. coli expression vectors, produced and purified. The binding kinetics of the VH domains to human and mouse PDFGR was determined using surface plasmon resonance on a Biacore T100. Briefly, human and mouse PDGFR-hIgG1-Fc chimeric fusion protein were separately immobilized using a Series CM5 sensorchip (CM5) coupled to anti-hIgG1 Fc monoclonal antibody. For each cycle, the PDGFR fusion protein was first captured, followed by the injection of VH for 115 seconds at a flow rate of 100 uL/min (association). Immediately following the association phase is a dissociation phase of 600 seconds. The surface was regenerated at each cycle with a single injection of 3M MgCl2 (10 uL/min, 60 seconds). Multiple concentrations of VH domain were injected (0.55 nM-40 nM) and the resulting sensorgram were analyzed with T100 Evaluation software. The binding kinetics was determined using 1:1 binding curve fitting.

The target of assay [4] is T2, human PDGFRβ (human, UniProt P09619 33-530, limits assumed).
T2 construct: also called hPDGFRβ; recombinant human PDGFRβ
T2 sequence (P09619 33-530 limits assumed): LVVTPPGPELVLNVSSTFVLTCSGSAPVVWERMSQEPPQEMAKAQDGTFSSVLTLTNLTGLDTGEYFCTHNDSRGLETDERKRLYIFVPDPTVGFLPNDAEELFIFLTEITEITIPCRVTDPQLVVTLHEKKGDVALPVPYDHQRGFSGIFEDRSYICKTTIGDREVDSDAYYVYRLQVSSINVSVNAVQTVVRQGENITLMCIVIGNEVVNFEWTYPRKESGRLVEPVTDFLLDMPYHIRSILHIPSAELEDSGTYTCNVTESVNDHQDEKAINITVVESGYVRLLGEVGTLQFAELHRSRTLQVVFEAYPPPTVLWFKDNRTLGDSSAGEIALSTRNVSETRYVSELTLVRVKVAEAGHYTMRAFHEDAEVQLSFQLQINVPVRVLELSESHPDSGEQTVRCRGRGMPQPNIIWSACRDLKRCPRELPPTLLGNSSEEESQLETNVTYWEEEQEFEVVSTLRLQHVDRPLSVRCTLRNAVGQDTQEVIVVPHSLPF
Description: solution equilibrium binding: 35S-Met labelled in vitro translated protein, human PDGFRβ titrated (0 to 20 nM), capture on protein A beads, scintillation counts. The procedure: The affinity of several scFvs was determined by solution based equilibrium binding assay. Specifically, 120 pmol of scFv RNA was translated into free protein with ³⁵S Met incorporated. The translated reaction mixture was 3-fold diluted in binding buffer containing 1×PBS with 0.025% triton, 1 mg/mL BSA and 0.1 mg/mL sssDNA. […] The diluted scFv mixture was incubated with hPDGFRβ in final volume of 100 ul on Kingfisher plates (Thermofisher Scientific, 97002084). Following incubation, 25 ul of protein A magnetic beads (Invitrogen) were used to capture the PDGFRβ from solution. The captured PDGFRβ was washed and eluted in kingfisher Reader (Thermofisher Scientific). The amount of scFv (labeled with ³⁵S Met) bound to the magnetic bead-immobilized hPDGFRβ was counted using a scintillation counter and the Kd was calculated with Graph Pad Prism 5.

Assay [5] addresses T3, mouse PDGFR-hIgG1-Fc chimeric fusion protein (mouse; human, UniProt P05622 32-530, limits assumed).
T3 construct: also called mouse PDGFRβ; mouse PDFGR; not shown: human IgG1 Fc
T3 sequence (looked up): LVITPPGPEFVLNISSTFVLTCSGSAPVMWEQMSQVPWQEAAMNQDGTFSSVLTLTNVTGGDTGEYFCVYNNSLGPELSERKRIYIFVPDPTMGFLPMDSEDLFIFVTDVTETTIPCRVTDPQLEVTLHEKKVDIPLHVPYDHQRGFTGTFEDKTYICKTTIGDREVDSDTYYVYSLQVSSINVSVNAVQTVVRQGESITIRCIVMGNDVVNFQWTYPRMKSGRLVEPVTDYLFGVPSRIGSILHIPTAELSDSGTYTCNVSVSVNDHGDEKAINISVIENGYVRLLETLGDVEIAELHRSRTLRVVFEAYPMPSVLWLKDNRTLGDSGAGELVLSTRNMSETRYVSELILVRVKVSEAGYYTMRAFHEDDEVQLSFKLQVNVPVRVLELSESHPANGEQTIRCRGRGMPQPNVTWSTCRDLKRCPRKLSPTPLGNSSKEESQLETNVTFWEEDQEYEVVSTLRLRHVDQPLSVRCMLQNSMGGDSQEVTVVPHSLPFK
Description: SPR (Biacore T100), mouse PDGFR-hIgG1-Fc captured by anti-hIgG1 Fc, 1:1 fit. On the procedure: as §2

Assay [6] addresses T1, human PDGFR-hIgG1-Fc chimeric fusion …. Description: SPR (Biacore T100), PDGFR-Fc captured by anti-hIgG1 Fc, 1:1 model. The procedure: as §1
Assay [7] has the same target. Kind of assay: SPR (Biacore T100), PDGFR-Fc captured by anti-hIgG1 Fc, VH injected, 1:1 fit. On the procedure: as §2
The target in assay [8] is T2, human PDGFRβ. Kind of assay: ELISA: plate coated with 2 ug/mL human PDGFRβ or human IgG, crude scFv lysate, anti-flag-HRP, OD450. The procedure: A PDGFRβ binding ELISA assay was performed to assess the binding of the scFv to immobilized PDGFRβ and to determine the EC50. Specifically, 2 ug/mL of human PDGFRβ and human Fc or IgG in PBS was immobilized on Maxisorp plates at 4° C. overnight. The plate was then washed and blocked with superblock. In vitro translated crude scFv lysate was diluted 1:3 in 1×PBST. 100 ul of the diluted scFv lysate was loaded into each well of Maxisorp plates and incubated for 1 hour at room temperature. scFv that bound to immobilized PDGFRβ was detected by anti-flag antibody-HRP at 1:5000 dilution and a TMB substrate. The plate was read on a Molecular Device plate reader with end point assay at OD 450 nm.
In general terms: An ELISA detects its analyte on a solid surface through an enzyme-linked reagent.

A further assay deals with T4, mouse PDGFRβ (mouse, UniProt P05622 32-530, limits assumed).
T4 sequence (looked up): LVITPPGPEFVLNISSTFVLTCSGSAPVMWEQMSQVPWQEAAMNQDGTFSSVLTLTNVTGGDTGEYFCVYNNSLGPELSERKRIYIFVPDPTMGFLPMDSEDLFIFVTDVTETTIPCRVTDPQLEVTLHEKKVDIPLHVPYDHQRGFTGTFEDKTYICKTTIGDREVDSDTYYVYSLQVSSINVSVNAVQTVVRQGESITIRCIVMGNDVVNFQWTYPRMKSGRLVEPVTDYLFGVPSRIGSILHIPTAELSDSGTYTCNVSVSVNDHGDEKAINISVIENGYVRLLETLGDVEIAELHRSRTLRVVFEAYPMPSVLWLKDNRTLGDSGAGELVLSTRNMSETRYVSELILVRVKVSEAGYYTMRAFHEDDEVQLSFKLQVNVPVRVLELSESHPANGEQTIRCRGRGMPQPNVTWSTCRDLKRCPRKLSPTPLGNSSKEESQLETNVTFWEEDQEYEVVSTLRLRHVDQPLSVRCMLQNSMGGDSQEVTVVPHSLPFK
Description: 35S-Met labelled in vitro translated VH, binding to target.

The target of assay [9] is T1, human PDGFR-hIgG1-Fc chimeric fusion …. Description: SPR (Biacore T100), PDGFR-hIgG1-Fc captured by anti-hIgG1 Fc, VH injected; series 0 to 120 in the legend box, unit inferred.
Assay [10] deals with T2, human PDGFRβ. Description: solution equilibrium binding: 35S-Met labelled in vitro translated protein, human PDGFRβ titrated, capture on protein A beads, scintillation counts. The procedure: The affinity of several scFvs was determined by solution based equilibrium binding assay. Specifically, 120 pmol of scFv RNA was translated into free protein with ³⁵S Met incorporated. The translated reaction mixture was 3-fold diluted in binding buffer containing 1×PBS with 0.025% triton, 1 mg/mL BSA and 0.1 mg/mL sssDNA. Human PDGFRβ was diluted in the same binding buffer to final concentrations from 100 nM to 0 nM. The diluted scFv mixture was incubated with hPDGFRβ in final volume of 100 ul on Kingfisher plates (Thermofisher Scientific, 97002084). Following incubation, 25 ul of protein A magnetic beads (Invitrogen) were used to capture the PDGFRβ from solution. The captured PDGFRβ was washed and eluted in kingfisher Reader (Thermofisher Scientific). The amount of scFv (labeled with ³⁵S Met) bound to the magnetic bead-immobilized hPDGFRβ was counted using a scintillation counter and the Kd was calculated with Graph Pad Prism 5.

Assay [11] has as its target T1, human PDGFR-hIgG1-Fc chimeric fusion …. Kind of assay: SPR (Biacore T100), human PDGFR-hIgG1-Fc captured by anti-hIgG1 Fc, 1:1 fit; the text prints it rounded as 93 pM. On the procedure:
as §2

T1 sequence (P09619 33-530 limits assumed, change not shown): as the sequence (P09619 33-530 limits assumed) above

B1: XB2202/A4 IgG1 (antibody)
heavy: not shown
light: DVVMTQSPSSLSASVGDRVTITCQASQDISNWLNWYQQKPGKAPKLLIYEASNLETGVPSRFSGSGSGTDFTFTISSLQPEDIATYYCQQYNNVLRTFGQGTKVEIKRTVAAPSVFIFPPSDEQLKSGTKVEIKRTVAAPSVFIFPPSDEQLKSGTASVVCLLNNFYPREAKVQWKVDNALQSGNSQESVTEQDSKDSTYSLSSTLTLSKADYEKHKVYACEVTHQGLSSPVTKSFNRGEC
notes: Full-length heterotetrameric IgG1 expressed in 293T cells; also called XB2202/A4 IgG1 antibody
Consider B1, for which, in assay [1], the affinity, expressed as Kd, was 1.59 nM; the koff came out at 0.00156 s⁻¹; the on-rate (kon) stood at 980000 M⁻¹ s⁻¹.

B2: XB2202 VH domain (other)
VH: QVQLVQSGAEVKKPGSSVRVSCKASGGTFSRHAISWVRQAPGQGLEWIGGILPILKTPNYAQRFQGRVTINADESTSTVYMEMSSLRSEDTAVYYCATHGGDRSYWGQGTLVTVSS
notes: Isolated (unpaired) human VH domain, framework-shuffled derivative of XB1511; produced in E. coli for SPR
In assay [2], B2 showed an IC50 below 5 nM. For the same molecule, the Kd is 0.243 nM in [3]; 0.234 nM with human PDGFRβ [4]; 0.925 nM in assay [5]; 0.227 nM in assay [6]; 0.249 nM in [7]. Also, the koff in [3] turned out to be 0.00175 s⁻¹; in assay [5] it was 0.00289 s⁻¹; in assay [6], 0.00295 s⁻¹; in [7], 0.00186 s⁻¹. Besides, the figures for the on-rate (kon) in assay [3], in [5] and in [6] were 7.19e+06 M⁻¹ s⁻¹, 3.13e+06 M⁻¹ s⁻¹ and 1.3e+07 M⁻¹ s⁻¹, respectively.

B3: A5 (scFv, V domains shown)
VH: QVQLVQSGAEVKKPGSSVRVSCKASGGTFSRHAISWVRQAPGQGLEWIGGILPILKTPNYAQRFQGRVTINADESTSTVYMEMSSLRSEDTAVYYCATHGGDRSYWGQGTLVTVSS
VL: SYELTQPPSASASLGASVTLTCTVSSGYRSYEVDWFQQRPGKGPRFVMRVGTGGIVGSRGDGIPDRFSVWGSGLNRYLTIEDIQEEDESDYYCGADHGSGSNLVYVFGTGTKVTVL
notes: also called XB2202/A5 scFv
As to B3, the binding result in the assay with human PDGFRβ [8] was “no binding”.

B4: C2 (scFv, V domains shown)
VH: QVQLVQSGAEVKKPGSSVRVSCKASGGTFSRHAISWVRQAPGQGLEWIGGILPILKTPNYAQRFQGRVTINADESTSTVYMEMSSLRSEDTAVYYCATHGGDRSYWGQGTLVTVSS
VL: DIQMTQSPSSLSASVGDRVAIACRPSQDIGTDLGWYQQKPGKAPKLLIFDSSTLQSGVPSRFSGSLSGTDFILTITNLQPEDFATYYCLQDYSFPYTFGQGTKLQIKR
notes: also called scFv XB2202-C2; XB2202/C2 scFv
Take B4: in the assay with human PDGFRβ [4], the Kd came to 0.018 nM.

B5: XB1511 VH domain (other)
VH: QVQLVQSGAEVKKPGSSVKVSCKASGGTFSSYAISWVRQAPGQGLEWMGGIIPIFGTANYAQKFQGRVTITADESTSTAYMELSSLRSEDTAVYYCAIHGGDRSYWGQGTLVTVSS
notes: Isolated (unpaired) human VH domain; also called clone A4; A4 XB1511
As to B5, in the assay with mouse PDGFRβ, the binding result is listed as “no binding (tested: 100 nM)”. Also, the Kd in assay [9] came out at 14.7 nM; with human PDGFRβ [10], 31.9 nM.

B6: XB2708 VH domain (other)
VH: QVQLVQSGGGVVQPGGSLRLSCAASGFTSRSYGMHWVRQAPGKGLEWVAFILFDGNNKYYADSVKGRFTISSDNSKNTLYLQMNSLRAEDTAVYYCATHGGDRSYWGQGTLVTVSS
notes: as for B2
As for B6, the on-rate (kon) was found to be 9.94e+06 M⁻¹ s⁻¹ in assay [3] and 6.41e+06 M⁻¹ s⁻¹ in assay [5]. Further, the Kd was 1.08 nM in assay [5], 0.0933 nM in [11] and 0.093 nM in assay [7]. The off-rate constant (koff) is 0.00692 s⁻¹ in assay [5] and 0.000927 s⁻¹ in assay [7].

Broadly, the Kd is the concentration at which binding is half-saturated. A lower Kd goes with tighter binding. The term koff denotes a measure of how fast the partners let go of each other. Read a low koff as a long-lived complex. Usually kon stands for a measure of how fast the partners come together. Lower therefore signals slow association. Broadly, the IC50 is the midpoint of a concentration-inhibition curve. The low end stands for inhibition by little substance, the high end for a need for much substance.
